Data as given in the supplement of paper PMC11865577.

Tests used:
Test in all cases: pull-down binding Z-score (relative to library population); higher = stronger binding
[1] = test system: G-clamp-N3 (biotin conjugate); details: RNA library: Library-1 (pre-miRNA loops + repeats)
Procedure, shortened: (§1)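 The RNA library, end-labelled with Cy5 or Cy3, was heat-folded in phosphate/NaCl/KCl buffer, and 1 μg was incubated at 25 °C for 60 min with streptavidin beads carrying 100 pmol of biotin-conjugated small molecule. Hot SDS released the bound RNA, which was then hybridised to a DNA barcode microarray for 20 h at 55.5 °C. For scoring binding, signal from beads alone was subtracted, replicate barcoded probes were averaged after discarding the highest and lowest, and each value was turned into a Z-score from the library mean and standard deviation.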

[2] = test system: TO-3-N3 (biotin conjugate); details: RNA library: Library-2
Procedure, shortened: as §1

[3] = test system: TO-3-N3-2 (biotin conjugate); details: RNA library: Library-2
Procedure, shortened: as §1

TO-N3 (biotin conjugate) = details: RNA library: Library-2
Procedure, shortened: as §1

[4] = test system: TO-N3-2 (biotin conjugate); details: RNA library: Library-2
Procedure, shortened: as §1

| Sequence | pull-down binding Z-score [1] | pull-down binding Z-score [2] | pull-down binding Z-score [3] | pull-down binding Z-score (TO-N3 (biotin conjugate)) | pull-down binding Z-score [4] |
| --- | --- | --- | --- | --- | --- |
| CAGGCGGGGCAGCCCAAUGCCAUGGGCCUGAU [hsa-mir-4695] | 2.14 | 0.737 | 0.157 | 1.32 | 1.92 |
| CAGGCUGCUAAACAACAGAACGAGCACUG [hsa-mir-378f] | 0.125 | -0.22 | -0.122 | -0.0846 | 0.421 |
| CAGGCUGGUCUCAAACUCCUGGUCUG [hsa-mir-1285-1] | -0.288 | -0.202 | -0.352 | -0.217 | -0.123 |
| CAGGCUGUGGCUCUCUGAAAGUC [hsa-mir-148b] | -1.29 | 0.761 | 0.496 | 1.09 | 1.18 |
| CAGGGAACUUUAAAACC [hsa-mir-4324] | 0.493 | 0.41 | 0.387 | 0.483 | 0.306 |
| CAGGGCGGUGCGGCAGCCGCCACC [hsa-mir-3621] | -0.214 | 0.771 | 0.241 | 1.07 | 1.24 |
| CAGGGGUUCUGAUAAACCCUUC [hsa-mir-6738] | -0.182 | 0.622 | -0.3 | 0.458 | 0.161 |
| CAGGUAGUUUUGGCAUGACUCUACUG [hsa-mir-20b] | -0.719 | 0.0561 | -0.229 | 0.556 | 1.44 |
| CAGGUGCCUCAAAGGGCAUCCCACCUG [hsa-mir-3151] | -0.124 | -0.578 | -0.452 | -0.673 | 0.0349 |
| CAGGUGUUCUUAAAAUCACCUG [hsa-mir-875] | -0.405 | -0.63 | -0.143 | -0.806 | -1.05 |
| CAGUAAGCCUUGACUUAUGGCUAAAUGCUUC [hsa-mir-4273] | -1.02 | -0.111 | 0.0166 | 0.0209 | 0.273 |
| CAGUACUGGUCUUAGACUG [hsa-mir-554] | 0.887 | 0.477 | 0.172 | 0.368 | 0.25 |
| CAGUAUGAAUGAAUUCAUGAUACUG [hsa-mir-3607] | 0.669 | -0.768 | -0.718 | -0.881 | -0.531 |
| CAGUCAGUAAAUAUUUUUUUGUGAAUG [hsa-mir-511] | 0.202 | -0.305 | 0.0526 | -0.146 | -0.132 |
| CAGUCCUGAGAUGCAGGGACUG [hsa-mir-4799] | 0.166 | -0.626 | -0.531 | -0.644 | -0.727 |
| CAGUGAACUAUCAUUGUGCCACUG [hsa-mir-1254-1] | 0.978 | 0.06 | -0.125 | 0.135 | -0.0953 |
| CAGUGACAUGCGUUUAAC [hsa-mir-4485] | -0.778 | 0.345 | 0.112 | 0.394 | 0.0479 |
| CAGUGAGCCAAGAUCGUGCCACUG [hsa-mir-1273d] | -0.48 | -0.172 | -0.179 | -0.147 | -0.0234 |
| CAGUGAGCUAUGAUCAUGUCCCUG [hsa-mir-1254-2] | 0.526 | 0.0243 | -0.1 | 0.105 | 0.362 |

| Sequence | pull-down binding Z-score [1] | pull-down binding Z-score [2] | pull-down binding Z-score [3] | pull-down binding Z-score (TO-N3 (biotin conjugate)) | pull-down binding Z-score [4] |
| --- | --- | --- | --- | --- | --- |
| CAGUGCACCUUCAUGAACCG [hsa-mir-938] | -1.11 | 0.249 | 0.209 | 0.758 | 1.14 |
| CAGUGCUUUUAGAAAAUUUGUGUG [hsa-mir-581] | -0.904 | -0.514 | 0.00216 | -0.558 | -0.187 |
| CAGUGGCAGAUUUUCCCAUAG [hsa-mir-4727] | -1.12 | -0.543 | -0.261 | -0.439 | -0.00285 |
| CAGUGGCAUCUGUCAUUG [hsa-mir-4663] | -0.635 | -0.159 | -0.425 | -0.508 | -0.784 |
| CAGUGGGGACAUG [hsa-mir-4531] | -0.559 | 2.18 | 1.52 | 1.77 | 0.957 |
| CAGUGGUGCCAUCUCCCCUG [hsa-mir-5008] | -1.49 | -0.377 | -0.353 | -0.122 | 0.471 |
| CAGUGUUAGCUCCAGAAGCAUUG [hsa-mir-3170] | 1.14 | 0.0378 | -0.107 | 0.171 | 0.644 |
| CAGUUGUACUGUGGCUG [hsa-mir-1291] | 0.37 | 0.0428 | 0.154 | 0.076 | 0.0227 |
| CAUACAUAUGCCUACUACUACUUUCAUAUGUAGGCAUAUGUAUG [hsa-mir-7852] | -0.626 | -0.502 | -0.144 | -0.8 | -0.89 |
| CAUACAUUUUGAAUAUGUAUG [hsa-mir-299] | -0.304 | 0.734 | -0.504 | 0.336 | -1.29 |
| CAUAUGUAUGUAUGUAUGUCUGUUACACAUAUG [hsa-mir-3688-1] | -0.787 | -0.769 | -0.0225 | -0.818 | -0.421 |
| CAUAUGUGUAACAGACAUACAUACAUACAUAUG [hsa-mir-3688-2] | -0.866 | -0.818 | -0.463 | -1.02 | -1.31 |
| CAUCACUGGAAUGUUCCAGCGACU [hsa-mir-3654] | -0.704 | -0.233 | -0.469 | -0.267 | -0.17 |
| CAUCAUUUGCACUACUGAUACUUGGGGUCAGAUAAUUGUUUGUGGUG [hsa-mir-4447] | 0.115 | -0.801 | -0.334 | -0.914 | -0.616 |
| CAUCCCGGACGGCCUGUGAGGGAUG [hsa-mir-4787] | 1.57 | 0.8 | 0.0114 | 1.1 | 0.952 |
| CAUGAGCCCUUUGGAAAGGUCUCGUG [hsa-mir-4711] | -0.633 | 0.395 | -0.105 | 0.16 | -0.478 |
| CAUGAUUUGGAAAAAUUACUG [hsa-mir-6128] | -0.888 | -0.174 | -0.0805 | -0.151 | -0.315 |
| CAUGCAGCAUGCUUGUCUG [hsa-mir-767] | -0.359 | -0.275 | -0.377 | -0.247 | 0.0549 |
